Paper PMC3413700

System: Irr (Rhodobacter sphaeroides 2.4.1)
Assay: EMSA
Settings: Mn2+ favored complex formation (1 mM MnCl2); Mn2+ in Kd assay not stated; EMSA: 20 mM TB pH 7.8, 5% glycerol, 1 mM DTT, 1 ug salmon sperm DNA, 0.1 mg/ml BSA, with or without 1 mM MnCl2, 15 ul, ~3 fmol probe, 30 min at 32 C; 6% PAGE …

Work on ccpA upstream region yielded a Kd of 900 nM.
mbfA upstream region showed a Kd of 800 nM.
